IntAct's records for PubMed 29039417

B1: BBSome complex member BBS4 (Homo sapiens), Q96RK4 (parent)
chain: MAEERVATRTQFPVSTESQKPRQKKAPEFPILEKQNWLIHLHYIRKDYEACKAVIKEQLQETQGLCEYAIYVQALIFRLEGNIQESLELFQTCAVLSPQSADNLKQVARSLFLLGKHKAAIEVYNEAAKLNQKDWEISHNLGVCYIYLKQFNKAQDQLHNALNLNRHDLTYIMLGKIHLLEGDLDKAIEVYKKAVEFSPENTELLTTLGLLYLQLGIYQKAFEHLGNALTYDPTNYKAILAAGSMMQTHGDFDVALTKYRVVACAVPESPPLWNNIGMCFFGKKKYVAAISCLKRANYLAPFDWKILYNLGLVHLTMQQYASAFHFLSAAINFQPKMGELYMLLAVALTNLEDIENAKRAYAEAVHLDKCNPLVNLNYAVLLYNQGEKKNALAQYQEMEKKVSLLKDNSSLEFDSEMVEMAQKLGAALQVGEALVWTKPVKDPKSKHQTTSTSKPASFQQPLGSNQALGQAMSSAAAYRTLPSGAGGTSQFTKPPSLPLEPEPAVESSPTETSEQIREK
partner: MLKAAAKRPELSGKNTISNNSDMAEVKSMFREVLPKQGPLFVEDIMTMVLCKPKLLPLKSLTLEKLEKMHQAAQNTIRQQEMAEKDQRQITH

Variants of: B1
Settings: with bbip1_human BBIP1, A8MTZ0

Row | effect of a mutation on the interaction | Variant
1 | with no effect | MAEERVATRTQFPVSTESQKPRQKKAPEFPILEKQNWLIHLHYIRKDYEACKAVIKEQLQETQGLCEYAIYVQALIFRLEGNIQESLELFQTCAVLSPQSADNLKQVARSLFLLGKHKAAIEVYNEAAKLNQKDWEISHNLGVCYIYLKQFNKAQDQLHNALNLNRHDLTYIMLGKIHLLEGDLDKAIEVYKKAVEFSPENTELLTTLGLLYLQLGIYQKAFEHLGNALTYDPTNYKAILAAGSMMQTHGDFDVALTKYRVVACAVPESPPLWNNIGMCFFGKKKYVAAISCLKRANYLAPFDWKILYNLGLVHLTMQQYAKAFHFLSAAINFQPKMGELYMLLAVALTNLEDIENAKRAYAEAVHLDKCNPLVNLNYAVLLYNQGEKKNALAQYQEMEKKVSLLKDNSSLEFDSEMVEMAQKLGAALQVGEALVWTKPVKDPKSKHQTTSTSKPASFQQPLGSNQALGQAMSSAAAYRTLPSGAGGTSQFTKPPSLPLEPEPAVESSPTETSEQIREK [S322K]
2 | with no effect | MAEERVATRTQFPVSTESQKPRQKKAPEFPILEKQNWLIHLHYIRKDYEACKAVIKEQLQETQGLCEYAIYVQALIFRLEGNIQESLELFQTCAVLSPQSADNLKQVARSLFLLGKHKAAIEVYNEAAKLNQKDWEISHNLGVCYIYLKQFNKAQDQLHNALNLNRHDLTYIMLGKIHLLEGDLDKAIEVYKKAVEFSPENTELLTTLGLLYLQLGIYQKAFEHLGNALTYDPTNYKAILAAGSMMQTHGDFDVALTKYRVVACAVPESPPLWNNIGMCFFGKKKYVAAISCLKRANYLAPFDWKILYNLGLVHLTMQQYASAKHFLSAAINFQPKMGELYMLLAVALTNLEDIENAKRAYAEAVHLDKCNPLVNLNYAVLLYNQGEKKNALAQYQEMEKKVSLLKDNSSLEFDSEMVEMAQKLGAALQVGEALVWTKPVKDPKSKHQTTSTSKPASFQQPLGSNQALGQAMSSAAAYRTLPSGAGGTSQFTKPPSLPLEPEPAVESSPTETSEQIREK [F324K]
3 | disrupting interaction strength | MAEERVATRTQFPVSTESQKPRQKKAPEFPILEKQNWLIHLHYIRKDYEACKAVIKEQLQETQGLCEYAIYVQALIFRLEGNIQESLELFQTCAVLSPQSADNLKQVARSLFLLGKHKAAIEVYNEAAKLNQKDWEISHNLGVCYIYLKQFNKAQDQLHNALNLNRHDLTYIMLGKIHLLEGDLDKAIEVYKKAVEFSPENTELLTTLGLLYLQLGIYQKAFEHLGNALTYDPTNYKAILAAGSMMQTHGDFDVALTKYRVVACAVPESPPLWNNIGMCFFGKKKYVAAISCLKRANYLAPFDWKILYNLGLVHLTMQQYASAPHFLSAAINFQPKMGELYMLLAVALTNLEDIENAKRAYAEAVHLDKCNPLVNLNYAVLLYNQGEKKNALAQYQEMEKKVSLLKDNSSLEFDSEMVEMAQKLGAALQVGEALVWTKPVKDPKSKHQTTSTSKPASFQQPLGSNQALGQAMSSAAAYRTLPSGAGGTSQFTKPPSLPLEPEPAVESSPTETSEQIREK [F324P]
4 | with no effect | MAEERVATRTQFPVSTESQKPRQKKAPEFPILEKQNWLIHLHYIRKDYEACKAVIKEQLQETQGLCEYAIYVQALIFRLEGNIQESLELFQTCAVLSPQSADNLKQVARSLFLLGKHKAAIEVYNEAAKLNQKDWEISHNLGVCYIYLKQFNKAQDQLHNALNLNRHDLTYIMLGKIHLLEGDLDKAIEVYKKAVEFSPENTELLTTLGLLYLQLGIYQKAFEHLGNALTYDPTNYKAILAAGSMMQTHGDFDVALTKYRVVACAVPESPPLWNNIGMCFFGKKKYVAAISCLKRANYLAPFDWKILYNLGLVHLTMQQYASAEHFLSAAINFQPKMGELYMLLAVALTNLEDIENAKRAYAEAVHLDKCNPLVNLNYAVLLYNQGEKKNALAQYQEMEKKVSLLKDNSSLEFDSEMVEMAQKLGAALQVGEALVWTKPVKDPKSKHQTTSTSKPASFQQPLGSNQALGQAMSSAAAYRTLPSGAGGTSQFTKPPSLPLEPEPAVESSPTETSEQIREK [F324E]
5 | with no effect | MAEERVATRTQFPVSTESQKPRQKKAPEFPILEKQNWLIHLHYIRKDYEACKAVIKEQLQETQGLCEYAIYVQALIFRLEGNIQESLELFQTCAVLSPQSADNLKQVARSLFLLGKHKAAIEVYNEAAKLNQKDWEISHNLGVCYIYLKQFNKAQDQLHNALNLNRHDLTYIMLGKIHLLEGDLDKAIEVYKKAVEFSPENTELLTTLGLLYLQLGIYQKAFEHLGNALTYDPTNYKAILAAGSMMQTHGDFDVALTKYRVVACAVPESPPLWNNIGMCFFGKKKYVAAISCLKRANYLAPFDWKILYNLGLVHLTMQQYASAAHFLSAAINFQPKMGELYMLLAVALTNLEDIENAKRAYAEAVHLDKCNPLVNLNYAVLLYNQGEKKNALAQYQEMEKKVSLLKDNSSLEFDSEMVEMAQKLGAALQVGEALVWTKPVKDPKSKHQTTSTSKPASFQQPLGSNQALGQAMSSAAAYRTLPSGAGGTSQFTKPPSLPLEPEPAVESSPTETSEQIREK [F324A]
6 | with no effect | MAEERVATRTQFPVSTESQKPRQKKAPEFPILEKQNWLIHLHYIRKDYEACKAVIKEQLQETQGLCEYAIYVQALIFRLEGNIQESLELFQTCAVLSPQSADNLKQVARSLFLLGKHKAAIEVYNEAAKLNQKDWEISHNLGVCYIYLKQFNKAQDQLHNALNLNRHDLTYIMLGKIHLLEGDLDKAIEVYKKAVEFSPENTELLTTLGLLYLQLGIYQKAFEHLGNALTYDPTNYKAILAAGSMMQTHGDFDVALTKYRVVACAVPESPPLWNNIGMCFFGKKKYVAAISCLKRANYLAPFDWKILYNLGLVHLTMQQYASAFEFLSAAINFQPKMGELYMLLAVALTNLEDIENAKRAYAEAVHLDKCNPLVNLNYAVLLYNQGEKKNALAQYQEMEKKVSLLKDNSSLEFDSEMVEMAQKLGAALQVGEALVWTKPVKDPKSKHQTTSTSKPASFQQPLGSNQALGQAMSSAAAYRTLPSGAGGTSQFTKPPSLPLEPEPAVESSPTETSEQIREK [H325E]
7 | with no effect | MAEERVATRTQFPVSTESQKPRQKKAPEFPILEKQNWLIHLHYIRKDYEACKAVIKEQLQETQGLCEYAIYVQALIFRLEGNIQESLELFQTCAVLSPQSADNLKQVARSLFLLGKHKAAIEVYNEAAKLNQKDWEISHNLGVCYIYLKQFNKAQDQLHNALNLNRHDLTYIMLGKIHLLEGDLDKAIEVYKKAVEFSPENTELLTTLGLLYLQLGIYQKAFEHLGNALTYDPTNYKAILAAGSMMQTHGDFDVALTKYRVVACAVPESPPLWNNIGMCFFGKKKYVAAISCLKRANYLAPFDWKILYNLGLVHLTMQQYASAFAFLSAAINFQPKMGELYMLLAVALTNLEDIENAKRAYAEAVHLDKCNPLVNLNYAVLLYNQGEKKNALAQYQEMEKKVSLLKDNSSLEFDSEMVEMAQKLGAALQVGEALVWTKPVKDPKSKHQTTSTSKPASFQQPLGSNQALGQAMSSAAAYRTLPSGAGGTSQFTKPPSLPLEPEPAVESSPTETSEQIREK [H325A]
8 | with no effect | MAEERVATRTQFPVSTESQKPRQKKAPEFPILEKQNWLIHLHYIRKDYEACKAVIKEQLQETQGLCEYAIYVQALIFRLEGNIQESLELFQTCAVLSPQSADNLKQVARSLFLLGKHKAAIEVYNEAAKLNQKDWEISHNLGVCYIYLKQFNKAQDQLHNALNLNRHDLTYIMLGKIHLLEGDLDKAIEVYKKAVEFSPENTELLTTLGLLYLQLGIYQKAFEHLGNALTYDPTNYKAILAAGSMMQTHGDFDVALTKYRVVACAVPESPPLWNNIGMCFFGKKKYVAAISCLKRANYLAPFDWKILYNLGLVHLTMQQYASKFHFLSAAINFQPKMGELYMLLAVALTNLEDIENAKRAYAEAVHLDKCNPLVNLNYAVLLYNQGEKKNALAQYQEMEKKVSLLKDNSSLEFDSEMVEMAQKLGAALQVGEALVWTKPVKDPKSKHQTTSTSKPASFQQPLGSNQALGQAMSSAAAYRTLPSGAGGTSQFTKPPSLPLEPEPAVESSPTETSEQIREK [A323K]
9 | disrupting interaction strength | MAEERVATRTQFPVSTESQKPRQKKAPEFPILEKQNWLIHLHYIRKDYEACKAVIKEQLQETQGLCEYAIYVQALIFRLEGNIQESLELFQTCAVLSPQSADNLKQVARSLFLLGKHKAAIEVYNEAAKLNQKDWEISHNLGVCYIYLKQFNKAQDQLHNALNLNRHDLTYIMLGKIHLLEGDLDKAIEVYKKAVEFSPENTELLTTLGLLYLQLGIYQKAFEHLGNALTYDPTNYKAILAAGSMMQTHGDFDVALTKYRVVACAVPESPPLWNNIGMCFFGKKKYVAAISCLKRANYLAPFDWKILYNLGLVHLTMQQYASVFHFLSAAINFQPKMGELYMLLAVALTNLEDIENAKRAYAEAVHLDKCNPLVNLNYAVLLYNQGEKKNALAQYQEMEKKVSLLKDNSSLEFDSEMVEMAQKLGAALQVGEALVWTKPVKDPKSKHQTTSTSKPASFQQPLGSNQALGQAMSSAAAYRTLPSGAGGTSQFTKPPSLPLEPEPAVESSPTETSEQIREK [A323V]
10 | with no effect | MAEERVATRTQFPVSTESQKPRQKKAPEFPILEKQNWLIHLHYIRKDYEACKAVIKEQLQETQGLCEYAIYVQALIFRLEGNIQESLELFQTCAVLSPQSADNLKQVARSLFLLGKHKAAIEVYNEAAKLNQKDWEISHNLGVCYIYLKQFNKAQDQLHNALNLNRHDLTYIMLGKIHLLEGDLDKAIEVYKKAVEFSPENTELLTTLGLLYLQLGIYQKAFEHLGNALTYDPTNYKAILAAGSMMQTHGDFDVALTKYRVVACAVPESPPLWNNIGMCFFGKKKYVAAISCLKRANYLAPFDWKILYNLGLVHLTMQQYASEFHFLSAAINFQPKMGELYMLLAVALTNLEDIENAKRAYAEAVHLDKCNPLVNLNYAVLLYNQGEKKNALAQYQEMEKKVSLLKDNSSLEFDSEMVEMAQKLGAALQVGEALVWTKPVKDPKSKHQTTSTSKPASFQQPLGSNQALGQAMSSAAAYRTLPSGAGGTSQFTKPPSLPLEPEPAVESSPTETSEQIREK [A323E]
11 | disrupting interaction strength | MAEERVATRTQFPVSTESQKPRQKKAPEFPILEKQNWLIHLHYIRKDYEACKAVIKEQLQETQGLCEYAIYVQALIFRLEGNIQESLELFQTCAVLSPQSADNLKQVARSLFLLGKHKAAIEVYNEAAKLNQKDWEISHNLGVCYIYLKQFNKAQDQLHNALNLNRHDLTYIMLGKIHLLEGDLDKAIEVYKKAVEFSPENTELLTTLGLLYLQLGIYQKAFEHLGNALTYDPTNYKAILAAGSMMQTHGDFDVALTKYRVVACAVPESPPLWNNIGMCFFGKKKYVAAISCLKRANYLAPFDWKILYNLGLVHLTMQQYASTFHFLSAAINFQPKMGELYMLLAVALTNLEDIENAKRAYAEAVHLDKCNPLVNLNYAVLLYNQGEKKNALAQYQEMEKKVSLLKDNSSLEFDSEMVEMAQKLGAALQVGEALVWTKPVKDPKSKHQTTSTSKPASFQQPLGSNQALGQAMSSAAAYRTLPSGAGGTSQFTKPPSLPLEPEPAVESSPTETSEQIREK [A323T]
